Here are results for one molecule from article PMC3303177.

For series [1], the target named is GST-AP-2β (UniProt Q92481 1-460). The experiment in a line: EMSA. For orientation: In EMSA bound probe runs differently from free probe, usually more slowly.
Series [2] concerns the target His-GAS41 (UniProt O95619 1-227). The experiment in a line: EMSA.

Sequence of GST-AP-2β (Q92481 whole entry): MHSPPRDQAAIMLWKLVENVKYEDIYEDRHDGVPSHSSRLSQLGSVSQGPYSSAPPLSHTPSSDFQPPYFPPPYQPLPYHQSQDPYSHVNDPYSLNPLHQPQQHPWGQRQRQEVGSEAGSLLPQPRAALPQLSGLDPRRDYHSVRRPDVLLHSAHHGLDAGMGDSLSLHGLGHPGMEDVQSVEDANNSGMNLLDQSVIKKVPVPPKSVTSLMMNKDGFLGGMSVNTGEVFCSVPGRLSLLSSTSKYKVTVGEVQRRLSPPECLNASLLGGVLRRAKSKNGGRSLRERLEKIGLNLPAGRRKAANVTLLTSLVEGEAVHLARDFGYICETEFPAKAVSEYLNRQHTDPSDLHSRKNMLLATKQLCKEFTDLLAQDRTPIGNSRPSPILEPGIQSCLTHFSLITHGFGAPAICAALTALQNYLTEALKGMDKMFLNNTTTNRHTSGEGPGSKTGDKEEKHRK
Sequence of His-GAS41 (O95619 whole entry): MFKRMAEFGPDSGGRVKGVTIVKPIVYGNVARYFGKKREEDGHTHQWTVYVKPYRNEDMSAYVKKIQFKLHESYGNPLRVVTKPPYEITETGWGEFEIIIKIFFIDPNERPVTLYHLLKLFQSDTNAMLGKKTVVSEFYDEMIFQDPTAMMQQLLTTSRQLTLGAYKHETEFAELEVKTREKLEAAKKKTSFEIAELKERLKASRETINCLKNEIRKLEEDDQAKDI

B1: hMT AP-2 consensus probe (dsDNA)
DNA 1: TGACCGCCCGCGGCCCGTG
DNA 2: CACGGGCCGCGGGCGCTCA
Regarding B1, the binding result in series [1] is recorded as “binds”; in series [2], “no binding”.
